Measured values as given in US20190085323A1 (published 2019).

Assays:
[1] = biological target: T1, HER2-ECD (recombinant extracellular domain of human epidermal growth factor receptor 2) (human, UniProt P04626 23-652); assay: ELISA, IgG1 titrated on immobilized HER2-ECD
T1 construct: extracellular domain; Recombinant HER2-ECD coated on ELISA plates

[2] = biological target: T2, HER2 on the surface of N87 gastric cancer cells (human, UniProt P04626 23-1255); assay: flow cytometry on N87 cells, 0.5 nM scFv detected with AL1-RFP
T2 construct: whole, on cells; also called cell surface HER2

[3] = biological target: T2, HER2 on the surface of N87 gastric …; assay: cell-based or functional assay

Row | Binder | EC50 [1] [ng/mL] | MFI [2] | % cell viability (AL1) [3] [%] | % cell viability (AL2) [3] [%]
1 | 31YCM#5 IgG1 (antibody, V domains shown, also called 3 YCM #5) VH: EVQLVESGGGLVQPGGSLRLSCKASGYTFGGSYMHWVRQAPGKGLEWVARIYPHYGYTYYADSVKGRFTISADTSKNTAYLQMNSLRAEDTAVYYCARGDDHFDYWGQGTLVTVSS VL: DIQMTQSPSSLSASVGDRVTITCKSNQNLLDSHGWTYLHWYQQKPGKAPKLLIYDASNLYSGVPSRFSGSGSGTDFTLTISSLQPEDFATYYCSQSYRLPYTFGQGTKVEIKR | 6.3 |  |  | 
2 | 30CHS-41 source scFv (scFv) DIQMTQSPSSLSASVGDRVTITCKSNQNLLDSGHQRTYLNWYQQKPGKAPKLLIYHTSLLYSGVPSRFSGSGSGTDFTLTISSLQPEDFATYYCSQTFRHPGTFGQGTKVEIKREVQLVESGGGLVQPGGSLRLSCKASGYTFTHWGMHWVRQAPGKGLEWVARINPYYGLTHYADSVKGRFTISADTSKNTAYLQMNSLRAEDTAVYYCARGHWLDYWGQGTLVTVSSASAAA |  | 153 | 77.6 | 71.6
3 | 2835-28 IgG1 (antibody, V domains shown) VH: EVQLVESGGGLVQPGGSLRLSCKASGYTFTDGSMHWVRQAPGKGLEWVAYINPYFGDTYYADSVKGRFTISADTSKNTAYLQMNSLRAEDTAVYYCARGWIDYWGQGTLVTVSS VL: DIQMTQSPSSLSASVGDRVTITCKSNQNLLLSNGRTFLYWYQQKPGKAPKLLIYGTSYLYSGVPSRFSGSGSGTDFTLTISSLQPEDFATYYCFQANHLPWTFGQGTKVEIKR | 3.9 |  |  | 
4 | 29TYL#10 IgG1 (antibody, V domains shown) VH: EVQLVESGGGLVQPGGSLRLSCKASGYTFTDGSMHWVRQAPGKGLEWVAYINPYFGDTYYADSVKGRFTISADTSKNTAYLQMNSLRAEDTAVYYCARGWIDYWGQGTLVTVSS VL: DIQMTQSPSSLSASVGDRVTITCKSNQNLLLSNGRTFLYWYQQKPGKAPKLLIYGTSYLYSGVPSRFSGSGSGTDFTLTISSLQPEDFATYYCFQANHLPWTFGQGTKVEIKR | 3.8 |  |  | 
5 | 29TYL#1 IgG1 (antibody, V domains shown) VH: EVQLVESGGGLVQPGGSLRLSCKASGYTFSTGSMHWVRQAPGKGLEWVAHINPHFGLTLYADSVKGRFTISADTSKNTAYLQMNSLRAEDTAVYYCAGSGFDYWGQGTLVTVSS VL: DIQMTQSPSSLSASVGDRVTITCKSNQNLLLSNGWTFLNWYQQKPGKAPKLLISRISDLYSGVPSRFSGSGSGTDFTLTISSLQPEDFATYYCFQASDFPYTFGQGTKVEIKR | 4.1 |  |  | 
6 | 35WYK-9 IgG1 (antibody, V domains shown) VH: EVQLVESGGGLVQPGGSLRLSCKASGYTFSHWGMHWVRQAPGKGLEWVAGIYPYFGNTYYADSVKGRFTISADTSKNTAYLQMNSLRAEDTAVYYCARGLLDYWGQGTLVTVSS VL: DIQMTQSPSSLSASVGDRVTITCKSNQNLLLSNGRTFLHWYQQKPGKAPKLLIFDVSNLYSGAPSRFSGSGSGTDFTLTISSLQPDDFATYYCSQTSRFPWTFGQGTKVEIKR | 5.7 |  |  | 
7 | 35WYK-16 IgG1 (antibody, V domains shown) VH: EVQLVESGGGLVQPGGSLRLSCKASGYTFGTSWMHWVRQAPGKGLEWVAGITPYYGLTFYADSVKGRFTISADTSKNTAYLQMNSLRAEDTAVYYCARGNLDYWGQGTLVTVSS VL: DIQMTQSPSSLSASVGDRVTITCKSNQNLLLSNGRTFLYWYQQKPGKAPKLLIYDVSDLYSGVPSRFSGSGSGTDFTLTISSLQPEDFATYYCFQGNNFPYTFGQGTKVEIKR | 6.2 |  |  | 
8 | 35WYK-16 source scFv (scFv) DIQMTQSPSSLSASVGDRVTITCKSNQNLLLSNGRTFLYWYQQKPGKAPKLLIYDVSDLYSGVPSRFSGSGSGTDFTLTISSLQPEDFATYYCFQGNNFPYTFGQGTKVEIKREVQLVESGGGLVQPGGSLRLSCKASGYTFGTSWMHWVRQAPGKGLEWVAGITPYYGLTFYADSVKGRFTISADTSKNTAYLQMNSLRAEDTAVYYCARGNLDYWGQGTLVTVSSASAAA |  | 299 | 72.2 | 41.4
9 | 29TYL#1 source scFv (scFv) DIQMTQSPSSLSASVGDRVTITCKSNQNLLLSNGWTFLNWYQQKPGKAPKLLISRISDLYSGVPSRFSGSGSGTDFTLTISSLQPEDFATYYCFQASDFPYTFGQGTKVEIKREVQLVESGGGLVQPGGSLRLSCKASGYTFSTGSMHWVRQAPGKGLEWVAHINPHFGLTLYADSVKGRFTISADTSKNTAYLQMNSLRAEDTAVYYCAGSGFDYWGQGTLVTVSSASAAA |  | 491 | 67.5 | 32.7
10 | 31YCM#3 source scFv (scFv) DIQMTQSPSSLSASVGDRVTITCKSNQNLLISGNQWTFLNWYQQKPGKAPKLLIYDVSRLYSGVPSRFSGSGSGTDFTLTISSLQPEDFATYYCYQGSDFPGTFGQGTKVEIKREVQLVESGGGLVQPGGSLRLSCKASGYTFARSGMHWVRQAPGKGLEWVAGISPNYGLTHYADSVKGRFTISADTSKNTAYLQMNSLRAEDTAVYYCARGFGVLDYWGQGTLVTVSSASAAA |  | 177 | 96.4 | 91.5
11 | 35WYK-9 source scFv (scFv) DIQMTQSPSSLSASVGDRVTITCKSNQNLLLSNGRTFLHWYQQKPGKAPKLLIFDVSNLYSGAPSRFSGSGSGTDFTLTISSLQPDDFATYYCSQTSRFPWTFGQGTKVEIKREVQLVESGGGLVQPGGSLRLSCKASGYTFSHWGMHWVRQAPGKGLEWVAGIYPYFGNTYYADSVKGRFTISADTSKNTAYLQMNSLRAEDTAVYYCARGLLDYWGQGTLVTVSSASAAA |  | 265 | 84.7 | 80.9
12 | 31YCM#5 source scFv (scFv) DIQMTQSPSSLSASVGDRVTITCKSNQNLLDSHGWTYLHWYQQKPGKAPKLLIYDASNLYSGVPSRFSGSGSGTDFTLTISSLQPEDFATYYCSQSYRLPYTFGQGTKVEIKREVQLVESGGGLVQPGGSLRLSCKASGYTFGGSYMHWVRQAPGKGLEWVARIYPHYGYTYYADSVKGRFTISADTSKNTAYLQMNSLRAEDTAVYYCARGDDHFDYWGQGTLVTVSSASAAA |  | 165 | 89.5 | 71.8
13 | 31YCM#3 IgG1 (antibody, V domains shown) VH: EVQLVESGGGLVQPGGSLRLSCKASGYTFARSGMHWVRQAPGKGLEWVAGISPNYGLTHYADSVKGRFTISADTSKNTAYLQMNSLRAEDTAVYYCARGFGVLDYWGQGTLVTVSS VL: DIQMTQSPSSLSASVGDRVTITCKSNQNLLISGNQWTFLNWYQQKPGKAPKLLIYDVSRLYSGVPSRFSGSGSGTDFTLTISSLQPEDFATYYCYQGSDFPGTFGQGTKVEIKR | 7.3 |  |  | 
14 | 30CHS-12 IgG1 (antibody, V domains shown) VH: EVQLVESGGGLVQPGGSLRLSCAASGFTISDYWIHWVRQAPGKGLEWVAGINPYYGVTVYADSVKGRFTISADTSKNTAYLQMNSLRAEDTAVYYCARGGVLDYWGQGTLVTVSS VL: DIQMTQSPSSLSASVGDRVTITCKSNQNLLDSGNQGTFLNWYQQKPGKAPKLLIFGTSHLYSGVPSRFSGSGSGTDFTLTISSLQPEDFATYYCSQSTDLPFTFGQGTKVEIKR | 41 |  |  | 
15 | 30CHS-13 IgG1 (antibody, V domains shown) VH: EVQLVESGGGLVQPGGSLRLSCKASGYTFGHYSMFWVRQAPGKGLEWVASIYPHYGHTYYADSVKGRFTISADTSKNTAYLQMNSLRAEDTAVYYCARGHWLDYWGQGTLVTVSS VL: DIQMTQSPSSLSASVGDRVTITCKSNQNLLDSGNQRTYLNWYQQKPGKAPKLLIYHTSRLYSGVPSRFSGSGSGTDFTLTISSLQPEDFATYYCSQTFRHPGTFGQGTKVEIKR | 41 |  |  | 
16 | 30CHS-41 IgG1 (antibody, V domains shown) VH: EVQLVESGGGLVQPGGSLRLSCKASGYTFTHWGMHWVRQAPGKGLEWVARINPYYGLTHYADSVKGRFTISADTSKNTAYLQMNSLRAEDTAVYYCARGHWLDYWGQGTLVTVSS VL: DIQMTQSPSSLSASVGDRVTITCKSNQNLLDSGHQRTYLNWYQQKPGKAPKLLIYHTSLLYSGVPSRFSGSGSGTDFTLTISSLQPEDFATYYCSQTFRHPGTFGQGTKVEIKR | 5 |  |  | 
17 | 30CHS-13 source scFv (scFv) DIQMTQSPSSLSASVGDRVTITCKSNQNLLDSGNQRTYLNWYQQKPGKAPKLLIYHTSRLYSGVPSRFSGSGSGTDFTLTISSLQPEDFATYYCSQTFRHPGTFGQGTKVEIKREVQLVESGGGLVQPGGSLRLSCKASGYTFGHYSMFWVRQAPGKGLEWVASIYPHYGHTYYADSVKGRFTISADTSKNTAYLQMNSLRAEDTAVYYCARGHWLDYWGQGTLVTVSSASAAA |  | 93 | 75.8 | 77.7
18 | 35CPT-9 source scFv (scFv) DIQMTQSPSSLSASVGGRVTITCKSNQNLLDSYGRTYLYWYQQKPGKAPKLLISGTSGLYSGVPSRFSGSGSGTDFTLTISSLQPEDFATYYCFQGYDYPFTFGQGTKVEIKREVQLVESGGGLVQPGGSLRLSCKASGYTFGDYGMHWVRQAPGKGLEWVAHIAPNDGITHYADSVKGRFTISADTSKNTAYLQMNSLRAEDTAVYYCARGYGWYDHVMDYWGQGTLVTVSSASAAA |  | 287 | 69.8 | 17.9
19 | 30CHS-12 source scFv (scFv) DIQMTQSPSSLSASVGDRVTITCKSNQNLLDSGNQGTFLNWYQQKPGKAPKLLIFGTSHLYSGVPSRFSGSGSGTDFTLTISSLQPEDFATYYCSQSTDLPFTFGQGTKVEIKREVQLVESGGGLVQPGGSLRLSCAASGFTISDYWIHWVRQAPGKGLEWVAGINPYYGVTVYADSVKGRFTISADTSKNTAYLQMNSLRAEDTAVYYCARGGVLDYWGQGTLVTVSSASAAA |  | 198 | 64.9 | 61.7
20 | 35CPT-9 IgG1 (antibody, V domains shown) VH: EVQLVESGGGLVQPGGSLRLSCKASGYTFGDYGMHWVRQAPGKGLEWVAHIAPNDGITHYADSVKGRFTISADTSKNTAYLQMNSLRAEDTAVYYCARGYGWYDHVMDYWGQGTLVTVSS VL: DIQMTQSPSSLSASVGGRVTITCKSNQNLLDSYGRTYLYWYQQKPGKAPKLLISGTSGLYSGVPSRFSGSGSGTDFTLTISSLQPEDFATYYCFQGYDYPFTFGQGTKVEIKR | 31.7 |  |  | 
